Measurements published in publication PMC11698917 (Nature Communications, 2025).
Several values for one entry are separate records, joined by “and”; a condition that tells them apart may be missing. Identical values can stand only once. Values belong to the binder of their own block, whether it stands above or below them.

Tests used:
[1] = target: T1, human VANGL2, full-length (FL), purified (human, UniProt Q9ULK5 1-521); experiment: cryo-EM structure
T1 sequence (looked up): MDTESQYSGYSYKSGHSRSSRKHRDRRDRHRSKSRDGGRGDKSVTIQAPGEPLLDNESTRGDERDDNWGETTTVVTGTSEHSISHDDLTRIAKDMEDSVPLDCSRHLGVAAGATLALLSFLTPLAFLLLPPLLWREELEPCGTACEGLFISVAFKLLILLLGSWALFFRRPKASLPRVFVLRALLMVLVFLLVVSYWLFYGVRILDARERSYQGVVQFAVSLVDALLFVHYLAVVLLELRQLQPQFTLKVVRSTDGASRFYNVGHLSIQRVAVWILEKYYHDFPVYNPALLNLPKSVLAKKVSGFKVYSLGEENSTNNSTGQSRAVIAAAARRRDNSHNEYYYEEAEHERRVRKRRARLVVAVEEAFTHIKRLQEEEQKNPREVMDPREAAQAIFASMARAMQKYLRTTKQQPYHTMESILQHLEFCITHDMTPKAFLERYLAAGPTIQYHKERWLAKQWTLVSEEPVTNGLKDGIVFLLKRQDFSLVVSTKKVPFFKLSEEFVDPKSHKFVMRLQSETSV

AUC = target: the molecule itself; experiment: AUC

binding result [1]: binds
Binder: NPGMNRFLGLYGEDDDSWCSSSSSSSDSEEEGYFLGQPIPQPRPQR (peptide, UniProt Q96MT3 745-790, looked up) [PK1^745-790 peptide, purified from E. coli]

B1: human VANGL1, full-length (FL), purified (natural protein, UniProt Q8TAA9 1-524, looked up)
chain: MDTESTYSGYSYYSSHSKKSHRQGERTRERHKSPRNKDGRGSEKSVTIQPPTGEPLLGNDSTRTEEVQDDNWGETTTAITGTSEHSISQEDIARISKDMEDSVGLDCKRYLGLTVASFLGLLVFLTPIAFILLPPILWRDELEPCGTICEGLFISMAFKLLILLIGTWALFFRKRRADMPRVFVFRALLLVLIFLFVVSYWLFYGVRILDSRDRNYQGIVQYAVSLVDALLFIHYLAIVLLELRQLQPMFTLQVVRSTDGESRFYSLGHLSIQRAALVVLENYYKDFTIYNPNLLTASKFRAAKHMAGLKVYNVDGPSNNATGQSRAMIAAAARRRDSSHNELYYEEAEHERRVKKRKARLVVAVEEAFIHIQRLQAEEQQKAPGEVMDPREAAQAIFPSMARALQKYLRITRQQNYHSMESILQHLAFCITNGMTPKAFLERYLSAGPTLQYDKDRWLSTQWRLVSDEAVTNGLRDGIVFVLKCLDFSLVVNVKKIPFIILSEEFIDPKSHKFVLRLQSETSV
stoichiometry N (AUC): ~6 and 3
